{"source": "patent US20150065434A1", "about": "(MUSC FOUNDATION FOR RESEARCH DEVELOPMENT, published 2015)", "key": {"[1]": {"target": "T1, human monoamine oxidase A (human, UniProt P21397 1-527, limits assumed)", "T1 sequence (looked up)": "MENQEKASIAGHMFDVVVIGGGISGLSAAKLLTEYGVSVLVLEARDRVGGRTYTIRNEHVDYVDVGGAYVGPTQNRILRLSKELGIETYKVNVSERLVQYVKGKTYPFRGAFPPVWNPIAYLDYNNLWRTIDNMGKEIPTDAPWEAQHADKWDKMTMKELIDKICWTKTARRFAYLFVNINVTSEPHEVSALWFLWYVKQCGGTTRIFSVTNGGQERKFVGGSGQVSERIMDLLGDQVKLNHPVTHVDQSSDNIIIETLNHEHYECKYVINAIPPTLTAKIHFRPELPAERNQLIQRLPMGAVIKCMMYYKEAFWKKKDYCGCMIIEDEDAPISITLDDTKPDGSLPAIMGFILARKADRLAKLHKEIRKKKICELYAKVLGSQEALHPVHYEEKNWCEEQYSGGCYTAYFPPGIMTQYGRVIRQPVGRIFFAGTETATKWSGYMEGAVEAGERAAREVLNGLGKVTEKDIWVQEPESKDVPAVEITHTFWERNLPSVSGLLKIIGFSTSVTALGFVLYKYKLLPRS", "test": "cell-based or functional assay"}, "[2]": {"target": "T2, human monoamine oxidase B (human, UniProt P27338 1-520, limits assumed)", "T2 sequence (looked up)": "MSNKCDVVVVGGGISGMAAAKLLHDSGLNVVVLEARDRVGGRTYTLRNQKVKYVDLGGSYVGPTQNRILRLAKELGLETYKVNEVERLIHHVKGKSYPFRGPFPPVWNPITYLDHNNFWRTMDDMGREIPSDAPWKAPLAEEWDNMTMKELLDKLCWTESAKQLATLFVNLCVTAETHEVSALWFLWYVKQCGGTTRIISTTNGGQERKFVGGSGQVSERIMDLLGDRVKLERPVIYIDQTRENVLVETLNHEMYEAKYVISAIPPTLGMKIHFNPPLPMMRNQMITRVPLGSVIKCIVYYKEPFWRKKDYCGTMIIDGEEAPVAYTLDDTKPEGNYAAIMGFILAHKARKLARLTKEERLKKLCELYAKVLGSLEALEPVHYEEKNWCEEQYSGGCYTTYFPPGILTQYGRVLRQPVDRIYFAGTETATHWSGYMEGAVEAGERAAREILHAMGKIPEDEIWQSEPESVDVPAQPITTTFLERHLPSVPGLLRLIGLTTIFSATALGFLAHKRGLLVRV", "test": "cell-based or functional assay"}}, "note": "Bridge positions count the residues as written; N and C are the ends. Ends that are not written are not given here."}
{"binder": "ARTMKTARKETGGKAPRKQLA-NH2 (lactam 5-10)", "note": "[[Met]^4 H3 (1-21)-NH2 cyclic peptide 11, lactam bridge between Lys5 and Glu10]", "values": [{"measurement": "IC50 (inhibition of MAO-A)", "setting": "[1]", "result": "> 100", "unit": "µM"}, {"measurement": "IC50 (inhibition of MAO-B)", "setting": "[2]", "result": "> 100", "unit": "µM"}]}
